Experiment [1] deals with H1 hemagglutinin of influenza A/New Caledonia/20/99 (H1N1) (influenza A virus H1N1 A/New Caledonia/20/99). As to the kind of experiment: cell-based or functional assay.
Experiment [2] deals with H5 hemagglutinin of influenza A/Indonesia/5/05 (H5N1) (influenza A virus H5N1 A/Indonesia/5/05). As to the kind of experiment: cell-based or functional assay.
The target of experiment [3] is H5 hemagglutinin of influenza A/Vietnam/1203/04 (H5N1) (influenza A virus H5N1 A/Vietnam/1203/04).
The target in experiment [4] is H5 hemagglutinin of influenza A/Turkey/65596/06 (H5N1) (influenza A virus H5N1 A/Turkey/65596/06). In words: cell-based or functional assay.
Experiment [5] concerns the target H5 hemagglutinin of influenza A/Vietnam/1203/04 (H5N1) (influenza A virus H5N1 A/Vietnam/1203/04). In words: cell-based or functional assay.

Substitutions are numbered along the chain they refer to.

B1: Antibody 4 (antibody, V domains shown)
VH: QVQLQESGPGLVKPSETLSLTCTVSGYSFDSGYYWGWLRQPPGKGLEWIGSIYHSRNTYYNPSLKSRVTISVDTSKNQFSLQLSSVTAADTAVYYCARGTWYSSNLRYWFDPWGKGTL
VL: NFMLTQPHSVSESPGKTVTISCTGSGGNIARNYVQWYQQRPGSAPVTVILEDDKRPSGIPDRFSGSIDRSSNSASLTISGLRTEDEALYYCQSYDDSDLVVFGGGTKLT
Regarding B1, the Minimum inhibitory concentrations required to neutralize virus in experiment [1] and in experiment [2] was greater than 333 µg/mL each time.

B2: Antibody 2 (antibody, V domains shown)
VH: QVQLVQSGAEVKKPGSSVKVSCKTSGGTFSSYAVTWVRQAPGQGLEWMGGIIGMFGTTNYAQKFQGRVTITADELTSTAYMELSSLRSEDTAVYYCARGSYYYESSLDYWGRGTL
VL: ETTLTQSPATLSVSPGERATLSCRASQSVSRNLAWYQQKPGQAPRLLIYGASSRATGIPDRFSGSGSGTDFTLTISRLEPEDFAVYYCQQYGSSSITFGQGTRLEIKR
For B2, in experiment [3], the Neutralization (MIC), H5N1 Vietnam 1203 virus, microneutralization stood at 188 µg/mL. In addition, the Minimum inhibitory concentrations required to neutralize virus in experiment [4] is 108 µg/mL; in experiment [5] it was 63 µg/mL; in experiment [2], 27 µg/mL.

B3: Antibody 1 (antibody, V domains shown)
VH: B2 VH with K19R, V68L, L75M, S105T, S106T
VL: ETTLTQSPGTLSLSPGERATLSCRVSQSVSSNYLAWYQQKPGQAPRLLIYGASSRATGIPDRFSGSGSGTDFTLTISRLEPEDFAVYYCQQYGTSPRAFGHGTKVEIKR
For the molecule B3, the Minimum inhibitory concentrations required to neutralize virus in experiment [1] was 9 µg/mL; in experiment [4] it was 9.3 µg/mL; in experiment [2], 9.3 µg/mL.

B4: Antibody 3 (antibody, V domains shown)
V domain 1: B2 VH with Q1E, G50A, E89D, R112K
V domain 2: QSVLTQPPSVSGAPGQRVTISCGGSRSNIGAGYDVHWYQQFPGTAPKVVIYGNNNRPSGVPDRFSGSKSGTSASLAITGLQAEDEANYYCQSYDTNLGGSIFGGGTQVTVL
Regarding B4, the Neutralization (MIC), H5N1 Vietnam 1203 virus, microneutralization in experiment [3] was 175 µg/mL. Moreover, the Minimum inhibitory concentrations required to neutralize virus turned out to be 31 µg/mL in experiment [4] and 16 µg/mL in experiment [2].

Source of the values: US20100040635A1.
